T1: human IL-18R1 and IL-18RAP on IL-18 Reporter HEK 293 Cells (human, UniProt Q13478 19-541; O95256 20-599)
T1 sequence (looked up) 1: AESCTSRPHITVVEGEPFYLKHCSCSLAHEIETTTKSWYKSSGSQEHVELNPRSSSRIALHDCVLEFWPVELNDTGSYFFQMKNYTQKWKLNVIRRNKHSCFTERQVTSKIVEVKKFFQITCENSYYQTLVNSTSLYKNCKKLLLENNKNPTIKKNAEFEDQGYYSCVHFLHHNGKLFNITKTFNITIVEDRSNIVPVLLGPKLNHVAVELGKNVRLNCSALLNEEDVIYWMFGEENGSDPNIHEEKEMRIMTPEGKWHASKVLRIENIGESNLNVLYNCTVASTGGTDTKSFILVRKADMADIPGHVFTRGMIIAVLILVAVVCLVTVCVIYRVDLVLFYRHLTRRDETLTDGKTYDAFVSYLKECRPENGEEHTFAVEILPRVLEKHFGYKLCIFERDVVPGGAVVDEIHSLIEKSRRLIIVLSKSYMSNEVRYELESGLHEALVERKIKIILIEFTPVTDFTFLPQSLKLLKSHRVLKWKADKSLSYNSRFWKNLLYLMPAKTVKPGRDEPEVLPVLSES
T1 sequence (looked up) 2: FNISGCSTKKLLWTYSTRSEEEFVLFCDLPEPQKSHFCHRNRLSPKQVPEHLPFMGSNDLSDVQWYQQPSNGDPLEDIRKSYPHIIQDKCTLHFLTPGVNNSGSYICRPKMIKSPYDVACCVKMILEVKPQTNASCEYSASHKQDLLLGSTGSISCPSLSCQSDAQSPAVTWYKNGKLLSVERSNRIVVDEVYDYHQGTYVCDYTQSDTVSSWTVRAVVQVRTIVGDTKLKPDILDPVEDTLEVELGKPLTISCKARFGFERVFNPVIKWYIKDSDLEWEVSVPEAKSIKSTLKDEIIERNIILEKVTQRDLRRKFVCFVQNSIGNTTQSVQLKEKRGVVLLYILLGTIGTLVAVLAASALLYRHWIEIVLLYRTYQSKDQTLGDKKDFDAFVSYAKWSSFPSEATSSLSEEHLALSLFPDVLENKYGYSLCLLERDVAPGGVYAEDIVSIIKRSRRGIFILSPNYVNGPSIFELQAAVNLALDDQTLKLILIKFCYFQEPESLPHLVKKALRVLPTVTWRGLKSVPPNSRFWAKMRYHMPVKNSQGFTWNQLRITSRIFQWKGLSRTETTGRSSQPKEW

B1: hzWio-02-03-His (bispecific antibody)
chain: EVQLVESGGGLVQPGGSLRLSCAASGNLYRDPCMGWFRQAPGKDREGVAAMNTGADSTFYARSVKGRFTISRDNAKNTLYLQMNSLRAEDTAVYYCAASRYCTERTYTWRYDYDYWGQGTLVTVSSGGGGSEVQLVESGGGLVQPGGSLRLSCAASGFTYIPAYMGWFRQAPGKERERVASIKTDASTTYADSVEGRFTISQDNAKNTLYLQMNSLRPEDTAVYYCAAYQFGAFRVWGQGTLVTVSSHHHHHH
B2: hzWio-02-01-Hm1 (bispecific antibody)
chain: EVQLVESGGGLVQPGGSLRLSCAASGHAYDNACMGWFRQAPGKEREGVASIHLRDRTYYADSVKGRFTISRDNSKNTLYLQMNSLRAEDTAVYYCASSNICNALNLQGNTYWGQGTLVTVSSGGGGSEVQLLESGGGLVQPGGSLRLSCAASGYTYGPYCMGWFRQAPGKEREGVAAVGGDARTWYGNSVKGRFTISRDNSKNTLYLQMNSLRAEDTAVYYCAADFDRTVCSDDIYDYTYRGQGTLVTVSSHHHHHH
B3: hzWio-02-01-Hm10 (bispecific antibody)
chain: B2 chain with H27T, I51H
B4: hzWio-02-01-Hm3 (bispecific antibody)
chain: B2 chain with H27T, Y29H
B5: hzWio-02-01-Hm11 (bispecific antibody)
chain: B2 chain with H27T, L53H
B6: hzWio-02-01-Hm2 (bispecific antibody)
chain: B2 chain with H27T, A28H
B7: hzWio-02-01-Hm26 (bispecific antibody)
chain: B2 chain with H27T, I100H
B8: hzWio-02-01-Hm25 (bispecific antibody)
chain: B2 chain with H27T, N99H
B9: hzWio-02-01-Hm28 (bispecific antibody)
chain: B2 chain with H27T, A103H
B10: hzWio-02-01-Hm13 (bispecific antibody)
chain: B2 chain with H27T, D55H
B11: hzWio-02-01-Hm9 (bispecific antibody)
chain: B2 chain with H27T, S50H
B12: hzWio-02-01-Hm33 (bispecific antibody)
chain: B2 chain with H27T, G108H
B13: hzWio-02-01-Hm34 (bispecific antibody)
chain: B2 chain with H27T, N109H
B14: hzWio-02-01-Hm18 (bispecific antibody)
chain: B2 chain with H27T, A60H
B15: hzWio-02-01-Hm35 (bispecific antibody)
chain: B2 chain with H27T, T110H
B16: hzWio-02-01-Hm5 (bispecific antibody)
chain: B2 chain with H27T, N31H
B17: hzWio-02-01-Hm23 (bispecific antibody)
chain: B2 chain with H27T, G65H
B18: hzWio-02-01-Hm7 (bispecific antibody)
chain: B2 chain with H27T, M34H
B19: hzWio-02-01-Hm20 (bispecific antibody)
chain: B2 chain with H27T, S62H
B20: hzWio-02-01-Hm31 (bispecific antibody)
chain: B2 chain with H27T, L106H
B21: hzWio-02-01-Hm4 (bispecific antibody)
chain: B2 chain with H27T, D30H
B22: hzWio-02-01-Hm12 (bispecific antibody)
chain: B2 chain with H27T, R54H
B23: hzWio-02-01-Hm17 (bispecific antibody)
chain: B2 chain with H27T, Y59H
B24: hzWio-02-01-Hm27 (bispecific antibody)
chain: B2 chain with H27T, N102H
B25: hzWio-02-01-Hm24 (bispecific antibody)
chain: B2 chain with H27T, S98H
B26: hzWio-02-01-Hm8 (bispecific antibody)
chain: B2 chain with H27T, G35H
B27: hzWio-02-01-Hm32 (bispecific antibody)
chain: B2 chain with H27T, Q107H
B28: hzWio-02-01-Hm6 (bispecific antibody)
chain: B2 chain with H27T, A32H
B29: hzWio-02-01-Hm16 (bispecific antibody)
chain: B2 chain with H27T, Y58H
B30: hzWio-02-01-Hm29 (bispecific antibody)
chain: B2 chain with H27T, L104H
B31: hzWio-02-01-Hm30 (bispecific antibody)
chain: B2 chain with H27T, N105H
B32: hzWio-02-01-Hm19 (bispecific antibody)
chain: B2 chain with H27T, D61H
B33: hzWio-02-01-Hm21 (bispecific antibody)
chain: B2 chain with H27T, V63H
B34: hzWio-02-01-Hm15 (bispecific antibody)
chain: B2 chain with H27T, T57H
B35: hzWio-02-01-Hm14 (bispecific antibody)
chain: B2 chain with H27T, R56H
B36: hzWio-02-01-Hm22 (bispecific antibody)
chain: B2 chain with H27T, K64H

Numbering of substitutions follows the chain as printed. Values joined by “and” are separate entries in the source; they are usually repeats but may differ in a detail not shown here. Equal entries are not always repeated.

The first test addresses T1, human IL-18R1 and IL-18RAP on IL-18 …. Briefly: cell-based or functional assay.
The EC50 is the concentration at which the effect is half-maximal. Read a low EC50 as greater potency. Molecule B1 returned a half-maximal effective concentration (EC50) of 0.394 ng/mL and a Top630nm of 1.82.

For another test the target is unchanged. Briefly: cell-based or functional assay. The source holds these as a separate data set.
As to B2, the EC50 worked out at 1.25 ng/mL and the Top530nm was found to be 0.909. As to B3, it took 1.27 ng/mL to reach a half-maximal effect (EC50) and the Top530nm turned out to be 1.1.

Turning to B4, the midpoint of the response, the EC50, lay at 1.14 ng/mL and the Top530nm came to 1.08. Molecule B5 gave an EC50 of 1.42 ng/mL and a Top530nm of 1.02. For B6, in that order: 2.27 ng/mL and 1.1. For B7 the same measures were 0.301 ng/mL and 0.764. For B8, the midpoint of the response, the EC50, lay at 0.04 ng/mL and the Top530nm was 0.738. For B9, the concentration for a half-maximal effect (EC50) is 0.42 ng/mL and the Top530nm was 0.821. The molecule B10 gave a concentration for a half-maximal effect (EC50) of 1.12 ng/mL and a Top530nm of 1.22. For B11 the same measures were 2.14 ng/mL and 0.9. For B12 the same measures were 19.5 ng/mL and 1.1. B13 registered an EC50 of 12.9 ng/mL and a Top530nm of 1. Molecule B14 showed an EC50 of 0.696 ng/mL and a Top530nm of 1.07. For B15 the same measures were 6.99 ng/mL and 1.18. For B16, in that order: 1.11 ng/mL and 1.01.

With B17, the 50% effective concentration (EC50) was determined as 0.238 ng/mL and the Top530nm came to 0.794. For B18, in that order: 1.12 ng/mL and 1.03. For the molecule B19, the EC50 worked out at 0.582 ng/mL and the Top530nm is 2.75.

On to B20, for which the EC50 came out at 7.75 ng/mL and the Top530nm came out at 1.05. As to B21, the 50% effective concentration (EC50) was 0.941 ng/mL and the Top530nm came to 1.08. B22: the concentration giving a half-maximal response (EC50) is 0.68 ng/mL and the Top530nm came to 1.17.

Molecule B23 showed an EC50 of 1.47 ng/mL and a Top530nm of 1.

For B24, the EC50 is 0.433 ng/mL and the Top530nm stood at 0.773.

On to B25, for which a half-maximal response (EC50) required 1.97 ng/mL and the Top530nm stood at 0.774. B26: the EC50 turned out to be 1.01 ng/mL and the Top530nm stood at 1.51. For B27, in that order: 10.9 ng/mL and 1.09.

Molecule B28 registered a half-maximal effective concentration (EC50) of 1.08 ng/mL and a Top530nm of 0.894. B29 displayed an EC50 of 1.15 ng/mL and a Top530nm of 1.11.

As to B30, the EC50 was 0.67 ng/mL and 1.49 ng/mL. In the case of B31, the EC50 is 28.7 ng/mL and the Top530nm is 0.349. Turning to B32, the half-maximal effective concentration (EC50) stood at 0.84 ng/mL and the Top530nm turned out to be 0.738. For B33 the same measures were 2.12 ng/mL and 1.12. Consider B34, for which a half-maximal response (EC50) required 1.54 ng/mL and the Top530nm turned out to be 1.13. As to B35, a half-maximal response (EC50) required 1.26 ng/mL and the Top530nm amounted to 1.25. For B36 the same measures were 0.182 ng/mL and 0.773.

The record behind these values is patent EP4711384A1 (WIO Bioscience Co., Ltd., dated 2026).
